Measurements published in the nanobody polyreactivity screen of Harvey et al. (2022).

Experiment: yeast display, Sf9 membrane polyspecificity reagent, FACS + sequencing; frameworks hold sequencing errors
Summary of the method: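 Galactose-induced (36–48 hours) yeast carrying a synthetic nanobody display library were exposed to 10% biotinylated, detergent-solubilized Sf9 membrane reagent at 4 °C for 1 hour. FACS followed streptavidin microbead enrichment, using low and high (top ~1%) gates for expression (anti-HA) and reagent binding (streptavidin). Colony PCR, MiSeq 2 × 250 sequencing and CDR-length filtering followed. Labels for polyreactivity reflect the gate of origin.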

Sequence | polyreactivity (PSR sort gate)
QVHLVESGGGLVQAGGSLRLSCAASGRTFVRYAMGWYRQAPGKERELVAAISLRGGRTYYADSVKGRFTISRDNAKNTVYLQMNSLKPEDTAVYYCAARSYPTGASYDYWGQGTQVTVSS | high polyreactivity
QVQLVESGGGLVQAGGSLRLSCAPSGRTFYLNAMGWYRPAPGKERELVAAIRFSGGSTYYADSVKGRFTISRDNAKNTVYLQMNSLKPEDTAVYYCNAGPYLSLYPTVSEYGYWGQGTQVTVSS | low polyreactivity
QVQLVESGGGLVQAGGSLRLSCAASGSIILRYAMGWYRQATGKERELVAAISNRGGSTYYADSVKGRFTISRDNAKNTVYLQMNSLKPEDTAVYYCAVRSTNERSAGKRRYYYWGQGTQVTVSS | high polyreactivity
QVQLVESGGGFVQAGGSLRLSCAASGRIFKQYGIGWYRQAPGKERELVAAIRSGDSTNYADSVKGRFTISRDNAKNTVYLQMNSLKPEDTAVYYCARDRPGDYAGYDYWGQGTQVTVSS | low polyreactivity
QVQLVESGGGLVQAGGSLRLSCAASGSTFSDNAMGWYRQAPGKERELVATINASGGSTYYADSVKGRFTITRDNAKNTVYLQMNSLKPEDTAVYYCAADVYTRFWRVYRFDYWGQGTQVTVSS | low polyreactivity
QVQLVESGGGLVQAGGSLRLICDASGSTFAYNDMGWYRQAPGKERELVAAITYSGGSTYYADSVKGRFTISRDNAKNTVSLQMNSLKPEDTAVYYCNAYTGYPYEYWGQGTQVTVSS | low polyreactivity
QVQLVESGGGLVQAGGSLRLSCAASGLTFGPYAMGWYRQAPGKERELVAAITSGGNTNYADSVKGRFTISRDNAKNTVYLQMNSLKPEDTAVYYCATSYYLAYRSITPYDYWGQGTQVTVSS | low polyreactivity
QVQLVESGGGLVQAGGSLRLSCAASGFIFYNAMGWYRQAPGKESELVAAITGSGGRTYYADSVKGRFTISRDNAKNTVYLQMNSLKPEDTAVYYCAADGYVRTVTSGWALRMGYWGQGTQVTVSS | high polyreactivity
QVQLVESGGGLVQAGGSLRLSCAASGSTLYGNVMGWYRQAPGKERELVATINRGGSTNYADSVKGRFTISRDNAKNTVYLQMNSLKPEDTAVYYCAARGFAWYYLEDYWGQGTQVTVSS | low polyreactivity
QVQLVESGGGLVQAGGSLRLSCAASGSTFGYYTMGWYREAPGKERELVAAISWSGGSTYYADSVKGRFTISRDNAKNTVYLQMNSLKPEDTAVYYCAALGYTYKYYSYYWGQGTQVTVSS | high polyreactivity
QVQLVESGGGLVQAGGSLRLSCAASGRTFRGNAMGWYRQAPGKERELVAAISRRGVSTYYADSVKGRFTISRDNAKNTVYLQMNSLKPEDTAVYYCAVVVYQGFRSKYYYWGQGTQVTVSS | high polyreactivity
QVQHVESGGGLVQAGGSLRLSCAASGLTFLSNAMGWYRPARGNEWELVAAINSGARKFYADSVKGRFTISRDNAKNTVYLQMNCLKPEDTAVYYCNADYGKPSYYDDGDYWGEGTQVTVSS | low polyreactivity
QVQLVESGGGLGQAGGSLRLSCAASGFIFVWYAMGWYRQAPGKERELVAAINWSGGHTYYADSVKGRFTISRDNSKNTVYLQMNSLKPEDTAVYYWNADSLWYWFYPYNYWGQGTQVTVSS | low polyreactivity
QGQLVESGGGLVQAGGSLRLSCAASGRIFPYAMGWYRQAPGKERELVAAISRIGGITYYADSVKGRFTISRDNAKNTVYLQMNSLKPEDTAVYYCNARFHPYRWTFDYWGQGTQVTVSS | high polyreactivity
QVQLVESGGGLVQAGGSLRLSCAASGGNFERNAMGWYRQAPGKERELVAAITGSGGRTYYADSVKGRFTISRDNAKITVYLQMNSLKPEDTAVYFCAAVPWWKYKYWGQGTQVTVSS | high polyreactivity
QDQLVESAAGLVQAGGSLRLSCAASGSTFATYAMGWYRKAPGKERELVAAITASGGRTFYADSVKGRFTLSRDNAKNTVYLQMNSLKPEDPAVYYCAKRGDYVPYTFDYWGQGTQVTVSS | high polyreactivity
QVQLVESGGGLVQAGGSLRLSCAASGRIFGRYVMGWYRQAPGKERELVAAITSRDDSTYYADSVKGRFTISRDNAKNTVYLQMNSLKPEDTAVYYCAATWGRGYDYWGQGTQVTVSS | high polyreactivity
QVQLVESGGGLVQAGGSHRLSCAASGRIFTSNTMGWYRQAPGKERELVAAITSSGGSMYYADSVKGRFTISRDNAKNTVYLQMNSLIPEDTAVYYCAADTIGYHYWYDYWGQGTQVTVSS | low polyreactivity
QVQLVESGGGVVQAGGSLRLSCAASGRIFVSYAMGWYRQAPGKERELVASISGRGGSTYYADSVKGRFTISRDNAKNTVELQMNSLKPEDTAVYYCNKVARTRRITTYDYWGQGTQVTVSS | high polyreactivity
QVQLVESGGGLVQAGGSLSLSCAASGRIFAGYAMGWYRQAPGKERELVAVISSRGGRTYYADSVKGRFTISRDNAKNTVYLQMNSLKPEDTAVYYCNRVFSYQYKRDYWGQGTQVTVSS | high polyreactivity
QVQLVESGGGLVQAGGSLRLSCAASGNIFPMNAMGWYIEAPGKERELVAAISYSGTSTYYADSVKGRFTISRDKAKNTVYLQMNSLKPEDTAVYYCAARVQRLNLGDYNYWGQGTQVTVSS | low polyreactivity
QVQLVESGGGLVQAGRSLRLSCAASGNTFWFYGMGWYRQAPGKVRELVAAITSGGSTDYADSVKGRFTISRENAKNTVSLQMNSLKPEDTAVYYCAAEPVAYYGSSYGYWGQGTQVTVSS | low polyreactivity
